The text below walks through data of patent publication US20210403538A1.

What is called EC50 is the concentration giving half of the maximal effect.

B1: EBOV-518 (antibody, V domains shown)
VH: QVTLKESGPTLVKPTQTLTLTCTFSGFSMNSSGMSVTWIRQPPGKALECLALIYWDDDKWYGPSLETRVTITKDASKNQVVLTMTNMDPVDTATYYCAHSGGLVAGAFDYWGQGTLVTVSS
VL: EIVMTQSPDSLTVSLGERATINCRSSQSVLYRVNSKNYLAWYQQKAGQTPKLIINWASTRESGVPDRFSGSGSGTDFTLTISSLQAEDVAVYYCQQYYNSPRTFGQGTKVEIK
B2: EBOV-524 (antibody, V domains shown)
VH: QVQLVESGGGVVQPGGSLRLSCAASGFKFSTYGMNWVRQVPGQGLEWVSFVRHDGSNKYYSDSVKGRFTIFRDNSNNKLYLQMNNLRAEDTAVYYCAKDVLDCSRADCFIYYYYMDVWGKGTLVTVSS
VL: DIQMTQSPSSVSASPGDRVTITCRASQTISGWLAWYQQKPGKAPKLLIYDVSTLQSGVPSRFSGGGSGTEFTFTISSLQPEDYATYFCQQGNRIPLSFGGGTRVEIK
B3: EBOV-451 (antibody, V domains shown)
VH: EVQLVESGGSVVRPGGSLRLSCAASGFKFDEYGMSWVRQAPGKGLEWVSGITWNGGVRTYADSVKGRFTISRDNAKNSVYLQMKSLRGEDTALYYCVSWGERYDAYFDYWGQGTLVTVSS
VL: EIVLTQSPGSLSLSPGERATLSCRASQSVNSRYFAWYQQRPGQAPRLLIYATSTRATGIPDRFSGSGSGTDFTLTISRLEPEDFAVYSCQQYGSSPYTFGQGTKLEIK
B4: EBOV-520 (antibody, V domains shown)
VH: QVQLQESGPGLGKPSETLSLSCTVSGASIRGYFWNWIRQPPGKGLEWIGYIHSTGSTNYNPSLKSRVTISVDTSKNQVSLNVNSVTAADTAVYFCARGAWNVATVYYYYGMDVWGQGTLVTVSS
VL: B3 VL with S10T, N30S, R32S, R40K, Y50S, A51G, T57P, S88F, S94N, P96L
B5: EBOV-511 (antibody, V domains shown)
VH: QLQLQESGPGLVKPSETLSLSCTVSGDSISANNYFWGWIRQPPGKELEWIGSIHNSGSTYYNPSLKSRVTTSVDTSRTQFSLKLHSVTAADAAIYYCARHLAPISGVIFIPSFFDSWGQGTLVTVSS
VL: EIVMTQSPATLSVSPGERATLSCRASQSVSSNLAWYQQRPGQAPRLLIFDASTRATGVPARFSGSGSGTEFTLTISSLQSEDFALYYCQQYNDWPPRLTFGGGTKVEIK
B6: EBOV-510 (antibody, V domains shown)
VH: QVQLQESGPGLVKPSQTLSLTCTVSGGSITSGDYYLTWVRQPPGKGLEWIGHIYYSGSTSYNPSLKSRLLMSVDTSKNQFSLRLSSVTAADTAVYYCARESDGDPSRLYFYFAMDVWGQGTLVTVSS
VL: QSALTQPASVSGSPGQSITISCTGTSSDVGGSYFVSWYQHHPGKAPKLMISEVSNRPSGVSNRFSGSKSGNTASLTISGLRTEDEADYYCSSYTSNTTLVFGGETKVTVL
B7: EBOV-446 (antibody, V domains shown)
VH: QVQLVQSGAEVKKPGASVKVSCKASGYTFTDYYIYWVRQAPGQGLEWMGWLNPNSGGTDYAQKFQGRVTMTRDTSIRTAYMDLSRLRSDDTAVYYCARGRRHGAYVDWGQGTLVTVSS
VL: DIQLTQSPSFLSASVGDRVTITCRASQGISTYLAWYQQKPGKAPNLLIYDTSTLQSGVPSRFSGSASGTEFTLTISSLQPEDFATYYCQQLNFYLGGLTFGQGTRLEIK
B8: EBOV-514 (antibody, V domains shown)
VH: QVQLQESGPGLVKPSQTLSLTCTVSGASITGGDDFWSWIRQPPGKGLEWIGFIHHSGNAYYRSSLKSRVHFSVDTSKDQFSLTLTSVTAADTAVYYCARDKAQAYGLLYHYHTDVWGKGTLVTVSS
VL: EIVMTQSPATLSVSPGERATLSCRASQSVSSNLAWYQQKPGLAPRLLIYGAFTRATDIPDRFSGSGSGTEFTLTISSLQSEDFAIYYCQYYNDWPPGYTFGQGTKLEIK
B9: EBOV-442 (antibody, V domains shown)
VH: EVQLVESGGGLVKPGGSLRLSCTGSGGTGFTFKYAGMSWVRQAPGKGPEWIGRIKSRIDGGTTDYAAPVKDRFIVSRDDSRNTLYLQMNSLKTEDTAVYYCATGSGKGPSASFGESYYYYDFINVWGKGTTVTVSS
VL: ESVLTQSPGTLSLSPGERATLSCRASQSISRKYLAWYQQKPGQAPRLLIYGSSSRATGIPDRFSGSGSGTDFTLTISRLEPEDFAVYYCHQYESSPWTFGQGTKVEIK
B10: EBOV-517 (antibody, V domains shown)
VH: EVQLVESGGGLVQPGGSLRLSCGASGFTFNKYWMTWVRQAPGKGLEWVANINQDGSEKYFAESVKGRFTVSRDNAKNSLYLQMNSLRAEDTAVYYCARGASIEVEILYYYHMDVWGKGTLVTVSS
VL: EIVMTQSPATLSVSPGERATLSCRASQSITTHLAWYQQKPGQAPRLLIYDTSTRATGIPARFSGSGSGTEFTLTISNMQSEDFAVYYCQQYHTWPPLTFGGGTKVEIK
B11: EBOV-507 (antibody, V domains shown)
VH: QVQLVQSGAEVKKPGASVKVSCKASGYTFNNYLINWVRQAPGQGLEWMGWINPHSGGTEYAQQFQGRLTVTRDTSIRTAYMELRGLTFDDSAMYYCWIWFRSETFDFWGQGTLVTVSS
VL: DIQMTQSPSAMSASVGDRVTITCRASQDISNYLAWFQQKPGQGPKRLIFEASILHSGVPSRFSGSGSGTEFTLTISSLQPEDFATYYCLQHNTYLTFGQGTKVEIK
B12: EBOV-434 (antibody, V domains shown)
VH: QVQLVQSGAEVKKPGASVKVSCKASGYTFTGYYMFWVRQAPGQGLEWMGWINPNSGGTNYTQKFQGRVTMTRDTSISTAYMELSRLKSDDTAVYYCARDSGELLFVGSDVWGQGTLVTVSS
VL: DIQMTQSPSSVSASVGDRVTITCRASLDISYWLAWYQQKPGKAPKLLIYAASNLQSGVPSRFSGSGSGTDFTLTISSLQPEDFATYYCQQANSFPQTFGQGTRLELK
B13: EBOV-508 (antibody, V domains shown)
VH: QVQLVQSGAEVKKPGASVKVSCKASGYTFINYYMHWVRQAPGQGLEWMGTINPSTGRPNYAQKFQGRVTLTRDTSTTTVDMELSSLTSEDTAVYYCVSFQFYFDYWGQGTLVTVSS
VL: DIQMTQSPSAMSPSVGDRVTITCRASQGINNYLAWFQQKPGKVPKRLIYAASNLQSGVPSRFSGSGSGTEFTLTISSLQPEDFATYYCLQHNSYPWTFGQGTKVEIN

Substitutions are numbered along the chain they refer to.

One assay has as its target SUDV GP [change] (Sudan ebolavirus) (UniProt Q7T9D9).
Assay: not given
B1 returned an EC50 of 0.352 µg/mL.
On the same count and under the same terms, in the case of B2 it was 0.701 µg/mL; in that of B3, 0.003 µg/mL; in that of B4, 0.136 µg/mL.
Consider B5, for which the EC50 was 0.387 µg/mL.
Same read-out and setting: in the case of B6 it was 3.09 µg/mL.
On the same count and under the same terms, as for B7, the figure is 0.722 µg/mL; as for B8, 0.015 µg/mL; as for B9, 0.006 µg/mL.
Same read-out and setting: as for B10, the figure is 1.69 µg/mL; as for B11, 0.002 µg/mL; as for B12, 1.11 µg/mL.
Consider B13, for which the EC50 was 0.003 µg/mL.

A further assay deals with MARV GP [change] (Lake Victoria marburgvirus) (UniProt Q1PD50).
Assay: not given
As for B1, the EC50 stood at 0.78 µg/mL.
The same measure, in the same setting: as for B2, the figure is greater than 10 µg/mL; as for B3, greater than 10 µg/mL; as for B4, greater than 10 µg/mL.
Same read-out and setting: in the case of B5 it was greater than 10 µg/mL.
Same read-out and setting: in the case of B6 it was greater than 10 µg/mL; in that of B7, greater than 10 µg/mL; in that of B8, greater than 10 µg/mL.
Consider B9, for which the 50% effective concentration (EC50) was greater than 10 µg/mL.
Same read-out and setting: as for B10, the figure is greater than 10 µg/mL; as for B11, greater than 10 µg/mL; as for B12, greater than 10 µg/mL.
Regarding B13, the EC50 is greater than 10 µg/mL.

The target of a further assay is BDBV GP [change] (Bundibugyo ebolavirus (BDBV), strain 200706291 Uganda). In words: ELISA, coated recombinant GP ΔTM. On the technique in general: In an ELISA, binding on a coated surface is turned into a signal by an enzyme label.
As for B1, the EC50 came to 2.63 µg/mL.
Turning to B2, the EC50 was determined as 0.146 µg/mL.
In the case of B3, the EC50 is 0.007 µg/mL.
Take B4: the EC50 is 0.072 µg/mL.
As to B5, the EC50 was determined as 0.289 µg/mL.
Still for that read-out and setting: in the case of B6 it was 0.261 µg/mL; in that of B7, 0.002 µg/mL; in that of B8, 0.01 µg/mL.
Still for that read-out and setting: in the case of B9 it was 0.003 µg/mL; in that of B10, 0.865 µg/mL.
Same read-out and setting: in the case of B11 it was 0.004 µg/mL.
In the case of B12, the EC50 came to 0.415 µg/mL.
On the same count and under the same terms, as for B13, the figure is 0.005 µg/mL.

The target of a further assay is EBOV GP [change] (Zaire ebolavirus (EBOV), strain Makona). In words: ELISA, coated recombinant GP ΔTM.
In the case of B1, the EC50 came out at 0.283 µg/mL.
B2: the EC50 came out at 0.123 µg/mL.
For B3, the EC50 is 0.001 µg/mL.
For B4, the concentration for a half-maximal effect (EC50) was determined as 0.012 µg/mL.
For B5, the EC50 was determined as 0.094 µg/mL.
Turning to B6, the EC50 came to 0.143 µg/mL.
On the same count and under the same terms, as for B7, the figure is 0.009 µg/mL; as for B8, 0.007 µg/mL.
The same measure, in the same setting: in the case of B9 it was 0.001 µg/mL.
For B10, the EC50 was determined as 0.042 µg/mL.
As for B11, the EC50 was 0.001 µg/mL.
Same read-out and setting: as for B12, the figure is 0.304 µg/mL; as for B13, 0.002 µg/mL.
